The values below are quoted from earlier work in publication PMC6596353.

pKd: −log10 of the molar value.

The data set concerns the target ST2 (Homo sapiens) (UniProt Q01638).
UniProt Q01638, sequence (Q01638 19-556): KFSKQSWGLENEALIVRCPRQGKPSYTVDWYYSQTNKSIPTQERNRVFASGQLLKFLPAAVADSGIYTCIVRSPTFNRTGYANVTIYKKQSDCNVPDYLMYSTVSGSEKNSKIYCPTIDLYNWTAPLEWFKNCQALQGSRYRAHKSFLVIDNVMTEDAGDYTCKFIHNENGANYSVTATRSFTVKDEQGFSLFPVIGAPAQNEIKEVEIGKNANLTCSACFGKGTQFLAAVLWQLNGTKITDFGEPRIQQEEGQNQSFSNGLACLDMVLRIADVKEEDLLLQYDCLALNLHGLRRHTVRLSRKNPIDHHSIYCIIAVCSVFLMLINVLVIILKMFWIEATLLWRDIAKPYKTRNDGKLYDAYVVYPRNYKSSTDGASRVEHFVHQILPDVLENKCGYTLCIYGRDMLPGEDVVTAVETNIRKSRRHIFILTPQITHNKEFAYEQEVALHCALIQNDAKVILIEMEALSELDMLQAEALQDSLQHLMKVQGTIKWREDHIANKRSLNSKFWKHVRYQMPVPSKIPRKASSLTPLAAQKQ

Regarding IL-33 (from UniProt O95760), the negative logarithm of the Kd (pKd) – broadly, the Kd on a negative log10 scale, so that one unit is a factor of ten – is 9.35.
